Test results from patent US20020164702A1.

Target: endogenous mouse MuSK on C2C12 myotubes or primary mouse myotubes (mouse) (UniProt Q61006)
Test: cell-based or functional assay

Sequence of UniProt Q61006 (Q61006 22-868): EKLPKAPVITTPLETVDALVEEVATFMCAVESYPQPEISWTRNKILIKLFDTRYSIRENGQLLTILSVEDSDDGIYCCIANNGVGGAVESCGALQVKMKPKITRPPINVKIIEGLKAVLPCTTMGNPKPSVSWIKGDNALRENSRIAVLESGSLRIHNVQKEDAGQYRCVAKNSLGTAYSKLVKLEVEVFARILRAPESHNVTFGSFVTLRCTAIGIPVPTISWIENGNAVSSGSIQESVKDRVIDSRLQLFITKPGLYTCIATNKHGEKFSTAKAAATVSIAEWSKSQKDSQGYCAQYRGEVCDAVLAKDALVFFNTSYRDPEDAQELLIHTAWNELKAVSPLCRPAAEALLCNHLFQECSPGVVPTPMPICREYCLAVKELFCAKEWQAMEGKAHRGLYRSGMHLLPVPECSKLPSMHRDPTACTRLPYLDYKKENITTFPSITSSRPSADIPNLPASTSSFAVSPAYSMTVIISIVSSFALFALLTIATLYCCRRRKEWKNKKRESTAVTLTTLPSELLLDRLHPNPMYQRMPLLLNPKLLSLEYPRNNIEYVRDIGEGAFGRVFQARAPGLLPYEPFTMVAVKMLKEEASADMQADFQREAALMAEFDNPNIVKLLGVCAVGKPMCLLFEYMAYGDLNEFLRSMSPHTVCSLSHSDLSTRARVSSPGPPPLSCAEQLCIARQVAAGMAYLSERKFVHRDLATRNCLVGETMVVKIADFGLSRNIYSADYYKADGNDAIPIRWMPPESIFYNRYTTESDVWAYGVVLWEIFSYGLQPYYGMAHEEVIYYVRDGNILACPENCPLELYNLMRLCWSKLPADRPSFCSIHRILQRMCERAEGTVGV

tyrosine phosphorylation of MuSK in myotubes, dose: 1 nM
Substance: agrin (isoform not stated at that place) (ligand)
